We go through five molecules from US20250123280A1, “LABEL-FREE DETECTION OF PROTEASE ACTIVITY” (OREGON HEALTH & SCIENCE UNIVERSITY, priority 2021, published 2025).

Series [1] is described as follows: ThT fluorescence of self-assembled peptide 2 in assay buffer. The following applies: peptide 2 0.58 mg/mL in assay buffer, ThT 90 μM. As for the experimental part:
β-sheet rich nanoplatelet formation by self-assembly of peptide 2. […] Nano Lett. 2017, 17 (9), 5546-5554). […] ThT (90 μM) addition to this solution yielded a bright fluorescence with an emission maximum of about 490 nm (see FIG. 2).

Series [2] is described as follows: Solubility in aqueous solutions. It counts as physicochemical.
The target of series [3] is T1, cathepsin B (Homo sapiens, UniProt P07858).
T1 construct: purchased Bio-Techne
The series can be described thus: Cathepsin B assay with peptide 3 and ThT. In kind it is biochemical. The following applies: after treatment with cathepsin B (1000 ng/mL vs 0 ng/mL). As for the experimental part: Peptide 3 was prepared as a 2.0 mg/mL solution in 1× phosphate buffered saline, pH 7.4 and 5% DMSO. In a typical assay experiment, 50 μL of the peptide 3 solution was mixed 50 μL of 50 mM MES buffer, pH 5 with cathepsin B at a concentration between about 0 and about 1000 ng/mL in a 96-well microplate and the plate was incubated at 37° C. for 2 hours. Then, 10 μL of 0.1 μm-filtered 1 mM aqueous ThT solution was added to each well and mixed for a final concentration of 90 μM ThT. After 15-30 min incubation at room temperature, the ThT fluorescence was measured at room temperature using a Tecan Spark 20M microplate reader.

Series [4] concerns the molecule itself. The series can be described thus: self-assembly of peptide 2 in assay buffer; centrifugation, TEM, AFM.
Method: Transmission electron microscopy (TEM) and atomic force microscopy (AFM) imaging. […] After incubating at 37° C. for 2.0 hours, the formed aggregates were collected by centrifugation and resuspended in ultrapure water. […] TEM images were taken using a Tecnai microscope (FEI). To prepare TEM samples, 5 μL of solutions were placed on carbon film 200 copper mesh TEM grids. Samples were incubated on TEM grids for about 5 minutes and bloated and air dried. Uranyl acetate was prepared in distilled water at 2% w/v and filtered with a 0.1 μm syringe filter before each use. A 20 μl droplet of this solution was placed on Parafilm and the TEM grid was floated on it for 7 minutes. Excess uranyl acetate was blotted using Whatman paper, and the sample is left to dry at room temperature.
The morphology of these structures was investigated using transmission electron microscopy (TEM) and atomic force microscopy (AFM). […] AFM experiments were performed to further analyze the morphology of self-assembled nano-platelets.
Series [5] deals with the molecule itself. The series can be described thus: circular dichroism of peptide 1 alone (self-assembly). (CD spectra are sensitive to the conformation of chiral molecules.)
Series [6] addresses T2, Peptide 1 (Fmoc-Phe-Lys-Phe-Glu-Ala-Ala-Asn-Gly-Glu-Glu-Gly-Ser-Gly-Glu-Glu).
T2 chain: FKFEAANGEEGSGEE

Ends that are not written are not given here. Peptide text beside a SMILES is read from it. * marks the point of attachment. Fmoc = O=C(OCC1c2ccccc2-c2ccccc21)*

For `C[C@H](NC(=O)[C@H](C)NC(=O)[C@H](CCC(=O)O)NC(=O)[C@H](Cc1ccccc1)NC(=O)[C@H](CCCCN)NC(=O)[C@H](Cc1ccccc1)NC(=O)OCC1c2ccccc2-c2ccccc21)C(=O)N[C@@H](CC(N)=O)C(=O)O` [peptide 2, Fmoc-FKFEAAN] (Fmoc-FKFEAAN-OH), the “enhancement in the ThT fluorescence intensity” value in series [1] stood at 45 fold. In addition, the “solubility in aqueous solutions” value in series [2] is “not soluble in aqueous solutions”.
As to “Fmoc-FKFELAGGAGEEGSGEEE [peptide 3, cathepsin B substrate motif LAGGAG in place of the legumain substrate]”, the “increase in ThT fluorescence” value in series [3] is no more than 72 fold.

B1: Peptide 2 (Fmoc-FKFEAAN) (peptide)
peptide: Fmoc-FKFEAAN
notes: Synthetic peptide bought from GenScript (1048.2 g/mol); It is also the product of hydrolysis of peptide 1 by legumain; It self-assembles into many-copy nanoplatelets; also called protein 2; self-assembly precursor
Turning to B1, the binding result in series [4] is reported as “binds”.
Turning to Fmoc-FKFEAANGEEGSGEE (also called protein 1; the probe) [Peptide 1 (Fmoc-Phe-Lys-Phe-Glu-Ala-Ala-Asn-Gly-Glu-Glu-Gly-Ser-Gly-Glu-Glu)], the binding result in series [5] is on record as “no binding (tested: 0.333 mg/mL)”.

B2: Recombinant mouse legumain (protein)
chain: VPVGVDDPEDGGKHWVVIVAGSNGWYNYRHQADACHAYQIIHRNGIPDEQIIVMMYDDIANSEENPTPGVVINRPNGTDVYKGVLKDYTGEDVTPENFLAVLRGDAEAVKGKGSGKVLKSGPRDHVFIYFTDHGATGILVFPNDDLHVKDLNKTIRYMYEHKMYQKMVFYIEACESGSMMNHLPDDINVYATTAANPKESSYACYYDEERGTYLGDWYSVNWMEDSDVEDLTKETLHKQYHLVKSHTNTSHVMQYGNKSISTMKVMQFQGMKHRASSPISLPPVTHLDLTPSPDVPLTILKRKLLRTNDVKESQNLIGQIQQFLDARHVIEKSVHKIVSLLAGFGETAERHLSERTMLTAHDCYQEAVTHFRTHCFNWHSVTYEHALRYLYVLANLCEAPYPIDRIEMAMDKVCLSHY
For B2, in series [6], the “LC-MS, fraction of peptide 1 cleaved” value was “almost 30% of the peptide was cleaved by legumain”; the “ON/OFF ratio of the assay in albumin depleted 20% plasma” value is on record as “improve the ON/OFF ratio of the assay to about 10”; the “ThT emission enhancement at 1 mg/mL peptide 1 (500 ng/mL legumain)” value was “a 28-fold enhancement in its emission was obtained at 1 mg/mL peptide concentration”; the “ThT emission intensity enhancement at 1000 ng/mL legumain (1.0 mg/mL peptide 1, 2 h)” value is on record as “about 32 fold at 1000 ng/mL legumain concentration”. In addition, in series [6], the “ThT emission intensity increase at peptide 1 below 0.25 mg/mL (500 ng/mL legumain)” value was “minimal (1.3-1.4 fold)”; the “ThT fluorescence enhancement at 10.0 ng/mL legumain” value is listed as “a slight (about 1.3 fold) fluorescence enhancement was obtained at the legumain concentration of 10.0 ng/mL”; the “ThT fluorescence enhancement at 25.0 ng/mL legumain” value is “an easily detectable (about 3-fold) fluorescence enhancement was detected at 25.0 ng/mL”; the “ThT fluorescence enhancement in 10% plasma (1000 ng/mL legumain, 25 µM ThT)” value was “a fluorescence enhancement of about 20 fold was obtained in 10% plasma at the legumain concentration of 1000 ng/mL”. Also, in series [6], the “ThT fluorescence enhancement in 20% human plasma (1000 ng/mL legumain, 90 µM ThT)” value is on record as “a detectable fluorescence enhancement (about 2.5 fold)”; the “ThT fluorescence intensity at 24 hours relative to 2 hours (1000 ng/mL legumain)” value is listed as “at 24 hours, the fluorescence intensity was about 2.5 higher compared with the intensity at two hours”; the “limit of detection (LOD) of legumain in the peptide 1 / ThT assay” value is given as “about 12 ng/mL (0.21 nM)”; the “limit of quantification (LOQ) of legumain in the peptide 1 / ThT assay” value is “about 25 ng/mL (0.45 nM)”. Further, the “minimum detectable legumain concentration in 10% plasma” value in series [6] is “a minimum detectable concentration between 50 ng/mL to 200 ng/mL”.
